How the values were obtained:
[1] = target: T1, RhlB (E. coli DEAD-box RNA helicase), wild type (E. coli) (UniProt P0A8J8)
T1 sequence: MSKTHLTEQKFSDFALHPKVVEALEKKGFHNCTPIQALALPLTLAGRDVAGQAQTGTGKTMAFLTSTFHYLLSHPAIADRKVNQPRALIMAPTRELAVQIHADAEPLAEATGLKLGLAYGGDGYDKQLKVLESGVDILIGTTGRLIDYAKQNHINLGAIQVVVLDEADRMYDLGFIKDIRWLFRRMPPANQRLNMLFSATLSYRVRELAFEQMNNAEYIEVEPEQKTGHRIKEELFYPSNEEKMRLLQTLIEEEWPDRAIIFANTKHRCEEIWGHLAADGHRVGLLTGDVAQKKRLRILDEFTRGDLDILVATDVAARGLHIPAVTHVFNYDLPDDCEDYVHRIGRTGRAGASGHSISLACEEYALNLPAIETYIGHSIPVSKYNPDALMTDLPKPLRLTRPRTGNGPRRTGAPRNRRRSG

[2] = target: T1, RhlB (E. coli DEAD-box RNA helicase), wild type (E. coli); remark: listed apart in the source
[3] = target: T2, RhlB (E. coli DEAD-box RNA helicase), wild type (E. coli, UniProt P0A8J8 1-421); test: cell-based or functional assay
T2 sequence (looked up): T1 sequence

RhlB = target: T3, RhlB (Escherichia coli, UniProt P0A8J8 1-421); test: NMR (1H imino titration); no ATP; 4.5 mM Mg2+; NMR: 150 mM KCl, 25 mM Tris/HCl, 5 mM DTT, 4.5 mM MgCl2, pH 8.3, 288 K, 100 µM RNA; EMSA: 150 mM NaCl, 25 mM Tris, 1.5 mM MgCl2, 5 mM DTT, 10% glycerol, pH 8.3, 4 C, 1.5 µM RNA; conditions: protein: recombinant, tags: C-terminal TEV site (ENLYFQG) + 6xHis, His-tag removed by TEV, site remnant left
T3 sequence: T1 sequence

RhlB;RNase E (694-790) = RhlB;RNase E (694-790) (Escherichia coli;Escherichia coli, UniProt P0A8J8;P21513 1-421;694-790, |); test: as above; conditions: protein: recombinant;recombinant, tags: C-terminal TEV site (ENLYFQG) + 6xHis, His-tag removed by TEV, site remnant left;N-terminal 6xHis-TEV, purified analogously (tag cleaved), copies: 1;1
[4] = label: none (titration), 3' overhang 8 nt
[5] = label: none (titration), single strand, two weak base pairs under NMR conditions

Molecule: RNase E (628-843) (from UniProt P21513 628-843) (domain or fragment)
- ATP turnover of RhlB with 5'-OV RNA, activation factor over RhlB alone, 31P real-time NMR experiment (400 uM RhlB/RNase E 1:1, 100 uM RNA) [1]: 2 fold
- ATP turnover of RhlB with 5'-OV RNA, activation factor over RhlB alone, phosphate assay [1]: 10 fold
- ATP turnover rate of RhlB (EnzChek phosphate assay, 2.4 uM RhlB and RNase E fragment, 6 uM RNA substrates of different topology), fold increase over RhlB alone [2]: < 27 fold

B1: RNase E (694-790) (domain or fragment, E. coli, UniProt P21513 694-790, looked up)
chain: AKALNVEEQSVQETEQEERVRPVQPRRKQRQLNQKVRYEQSVAEEAVVAPVVEETVAAEPIVQEAPAPRTELVKVPLPVVAQTAPEQQEENNADNRD
- ATP turnover rate of RhlB (EnzChek phosphate assay, 2.4 uM RhlB and RNase E fragment, 6 uM RNA substrates of different topology), fold increase over RhlB alone [3]: ≤ 6 fold

B2: Blunt duplex 21 nt (dsRNA)
RNA 1: UAGUAACUAAAACAUUAAAUU
RNA 2: AAUUUAAUGUUUUAGUUACUA
- Kd (RhlB; label: none, blunt): 162 ± 30.3 µM

B3: 3'-OV duplex (dsRNA)
RNA 1: UAGUAACUAAAACAUUAAAUU
RNA 2: GUUUUAGUUACUA
- Kd (RhlB;RNase E (694-790); [4]): 82.3 ± 27.3 µM
- Kd (RhlB; [4]): 216 ± 33.7 µM

Molecule: UAGUAACUAAAACAUUAAAUU (ssRNA) [21 nt single strand]
- Kd (RhlB;RNase E (694-790); [5]): 264.5 ± 1 µM
- Kd (RhlB; [5]): 94.9 ± 59.2 µM

B4: Blunt duplex 13 nt (dsRNA)
RNA 1: UAGUAACUAAAAC
RNA 2: GUUUUAGUUACUA
- Kd (RhlB;RNase E (694-790); label: none, blunt): 488 ± 40.5 µM
- Kd (RhlB; label: none, blunt): 155 ± 33.7 µM

Reference: paper PMC10500059, “Allosteric activation of RhlB by RNase E induces partial duplex opening in substrate RNA” (Frontiers in Molecular Biosciences, 2023)
